# Test results from the supplement of paper PMC7877785.
# ± gives the uncertainty stated by the source.
# Test: self-splicing fitness, log relative to wild type (ln ratio); higher = more splicing; Tetrahymena group I intron in knt gene, E. coli kanamycin selection, DiMSum; sequences stand for … in CUCUCU…GGAGGGAAAAGUUAUCAGGCAUGCACCUGGUAGCUAGUCUUUAAACCAAUAGAUUGCAUCGGUUUAAAAGGCAAGACCGUCAAAUUGCGGGAAAGGGGUCAACAGCCGUUCAGUACCAAGUCUCAGGGGAAACUUUGAGAUGGCCUUGCAAAGGGUAUGGUAAUAAGCUGACGGACAUGGUCCUAACCACGCAGCCAAGUCCUAAGUCAACAGAUCUUCUGUUGAUAUGGAUGCAGUUCACAGACUAAAUGUCGGUCGGGGAAGAUGUAUUCUUCUCAUAAGAUAUAGUCGGACCUCUCCUUAAUGGGAGCUAGCGGAUGAAGUGAUGCAACACUGGAGCCGCUGGGAACUAAUUUGUAUGCGAAAGUAUAUUGAUUAGUUUUGGAGUACUCGUGGUCG
# Procedure, shortened: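 Six replicate transformations of E. coli BL21(DE3) with a pET-22b(+) library were grown overnight at 37°C or 30°C. The library randomised all eight P1ex-region intron nucleotides, the intron lying in the knt kanamycin-resistance gene, and plates were LB agar with or without 25 μg/mL kanamycin plus 100 μg/mL carbenicillin, 50 μM IPTG and 0.2% rhamnose. Pooled colonies were amplicon-sequenced on an Illumina HiSeq 2500, and fitness is the DiMSum error-weighted combination of wild-type-normalised replicate fold changes, kanamycin versus none.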
Sequence,self-splicing fitness (ln) (30 °C),self-splicing fitness (ln) (37 °C)
GGCAAGCAAUAUUACGUGGA,-1.28 ± 0.077,-0.277 ± 0.073
GGCAAGCAAUAUUACGUUAG,-3.77 ± 0.2,-2.57 ± 0.19
GGCCAGCAAUAUUACGAACU,-0.359 ± 0.07,-0.12 ± 0.079
GGCCAGCAAUAUUACGACCU,-1.96 ± 0.19,-0.345 ± 0.22
GGCCAGCAAUAUUACGACGC,-1.02 ± 0.15,0.369 ± 0.17
GGCCAGCAAUAUUACGAGAC,-3.29 ± 0.25,-2.77 ± 0.28
GGCCAGCAAUAUUACGAGCA,-0.969 ± 0.077,-0.145 ± 0.084
GGCCAGCAAUAUUACGAUAC,-2.04 ± 0.11,-0.501 ± 0.13
GGCCAGCAAUAUUACGAUGU,-2.4 ± 0.092,-1.92 ± 0.12
GGCCAGCAAUAUUACGCAAG,-3.48 ± 0.25,-3.15 ± 0.43
GGCCAGCAAUAUUACGCAUG,-2.27 ± 0.12,-1.3 ± 0.14
GGCCAGCAAUAUUACGCGCU,–,-1.76 ± 0.39
GGCCAGCAAUAUUACGGAAC,-0.685 ± 0.1,-0.981 ± 0.14
GGCCAGCAAUAUUACGGACG,-0.421 ± 0.072,0.71 ± 0.1
GGCCAGCAAUAUUACGGAUU,-0.639 ± 0.056,-0.524 ± 0.063
GGCCAGCAAUAUUACGUAUU,-2.14 ± 0.11,-0.199 ± 0.087
GGCCAGCAAUAUUACGUGAG,-2.13 ± 0.08,-1.49 ± 0.092
GGCCAGCAAUAUUACGUGGU,-3.49 ± 0.21,-1.76 ± 0.2
GGCCAGCAAUAUUACGUUAC,-2.01 ± 0.12,-0.532 ± 0.15
GGCCAGCAAUAUUACGUUGA,-2.04 ± 0.12,-1.27 ± 0.12
GGCGAGCAAUAUUACGACAA,–,-1.05 ± 0.34
GGCGAGCAAUAUUACGACGG,-3.28 ± 0.38,-3.37 ± 0.47

Sequence,self-splicing fitness (ln) (30 °C),self-splicing fitness (ln) (37 °C)
GGCGAGCAAUAUUACGACUC,-0.185 ± 0.14,0.173 ± 0.24
GGCGAGCAAUAUUACGCAGA,-3.15 ± 0.4,-2.31 ± 0.23
GGCGAGCAAUAUUACGCAGG,-2.43 ± 0.23,-2.75 ± 0.33
GGCGAGCAAUAUUACGGCAU,-0.523 ± 0.13,0.0629 ± 0.15
GGCGAGCAAUAUUACGGGAA,-2.55 ± 0.3,-1.74 ± 0.43
GGCGAGCAAUAUUACGGGCG,-0.296 ± 0.12,0.0537 ± 0.14
GGCGAGCAAUAUUACGGUCA,0.0811 ± 0.15,-0.103 ± 0.13
GGCGAGCAAUAUUACGGUCU,-1.89 ± 0.2,-1.03 ± 0.21
GGCGAGCAAUAUUACGGUGA,-2.82 ± 0.089,-1.39 ± 0.081
GGCGAGCAAUAUUACGGUGC,-2.76 ± 0.16,-1.86 ± 0.23
GGCGAGCAAUAUUACGUAGU,-1.57 ± 0.13,-0.422 ± 0.14
GGCGAGCAAUAUUACGUGCC,–,-2.25 ± 0.45
GGCGAGCAAUAUUACGUUCG,-3.74 ± 0.27,-1.59 ± 0.3
GGCGAGCAAUAUUACGUUUG,-2.31 ± 0.21,-2.78 ± 0.38
GGCUAGCAAUAUUACGAACU,-0.723 ± 0.25,0.433 ± 0.25
GGCUAGCAAUAUUACGAGCG,-1.17 ± 0.14,-0.288 ± 0.17
GGCUAGCAAUAUUACGAUCU,-0.432 ± 0.1,0.129 ± 0.12
GGCUAGCAAUAUUACGCAUG,-1.11 ± 0.11,-1.04 ± 0.11
GGCUAGCAAUAUUACGCAUU,-0.352 ± 0.074,0.553 ± 0.086
GGCUAGCAAUAUUACGCCUG,-3.72 ± 0.29,-1.95 ± 0.23
GGCUAGCAAUAUUACGCGCG,-0.69 ± 0.14,0.174 ± 0.17
